Test [1] has as its target CD4:Fc (human) (UniProt P01730). Nature of the test: SPR, BIAcore2000, CD4:Fc immobilized by amine coupling, MAb flowed. (In general: SPR reads the build-up and loss of mass on a sensor chip optically.)
Test [2] concerns the target T1, Human CD152 Mu-Ig fusion (Ancel # 501-820) (human, UniProt P16410 36-161).
T1 construct: Bought reagent; coated on ELISA plates at 0.2 ug/ml for hybridoma screening; also called CTLA-4; not shown: murine Ig part of the bought fusion, not described
T1 sequence (looked up): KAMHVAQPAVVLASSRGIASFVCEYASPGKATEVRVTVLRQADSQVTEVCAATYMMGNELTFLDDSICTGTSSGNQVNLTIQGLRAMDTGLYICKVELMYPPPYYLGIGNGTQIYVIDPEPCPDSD
Briefly: ELISA of hybridoma supernatant on coated human CD152 mu-Ig fusion (assay taken from paragraph 247; the table does not explain OD). (In general: In an ELISA, binding on a coated surface is turned into a signal by an enzyme label.)

As a reminder, the koff is the first-order rate constant of dissociation. A low value points to slow dissociation. As a reminder, the kon is a measure of how fast the partners come together.

In test [1], “murine anti-CD4 MAb, Leu3a (Pharmingen) (antibody)” returned a Ka of 3.1e+10 M⁻¹, an off-rate constant (koff) of 7.1e-06 s⁻¹ and a kon of 220000 M⁻¹ s⁻¹.

B1: 9C4 (antibody, V domains shown)
VH: QVQLVESGGGVVEPGRSLRLSCAASGFTFSSYGMHWVRQAPGKGLEWVAVIWYKSSEKDYADSAKGRFTISRDNSKNTLYLQMNSLRAEDTAVYYCARAGLLGYFDYWGQGTLVTVSS
VL: EIVLTQSPGTLSLSPGERATLSCRASQSLNSYLAWYQQKPGQAPRPLIYGVSSRATGIPDRFSGSGSGTDFTLTISRLEPEDFAVYYCQQYGIYPFTFGPGTKVDIK
Molecule B1 showed an OD in test [2] of 1.3 OD.

B2: 1H5 (antibody, V domains shown)
VH: QLQLQESGPGLVKPSETLSLTCTVSGGSISNSNYYWGWIRQPPGKELEWIGSIYYTGNTYYNPSLKSRVTVSVDTSRNQFSLNLNSVIAADTAVYSCARHGFTISWSLDVWGQGTTVTVSS
VL: AIQLTQSPSSLSASVGDRVTITCRASQGISSALAWYQQKPGKAPKLLIYDASSLESGVPSRFSGSGSGTDFTLTISSLQPEDFATYYCQQFNSYLLTFGGGTKVEIK
In the case of B2, in test [2], the OD came out at 1.39 OD.

These data come from patent publication US20020199213A1 (Kyowa Kirin, published 2002).
